Results: PMC11272584 (Nature Metabolism, 2024)
Changes are numbered by the printed parent chain. Numbers in names are those of the source.

T1: GIPR I378M (Homo sapiens, UniProt P48546, I378M)
T1 construct: host or cells: HEK293
T1 sequence (P48546 22-466 I378M): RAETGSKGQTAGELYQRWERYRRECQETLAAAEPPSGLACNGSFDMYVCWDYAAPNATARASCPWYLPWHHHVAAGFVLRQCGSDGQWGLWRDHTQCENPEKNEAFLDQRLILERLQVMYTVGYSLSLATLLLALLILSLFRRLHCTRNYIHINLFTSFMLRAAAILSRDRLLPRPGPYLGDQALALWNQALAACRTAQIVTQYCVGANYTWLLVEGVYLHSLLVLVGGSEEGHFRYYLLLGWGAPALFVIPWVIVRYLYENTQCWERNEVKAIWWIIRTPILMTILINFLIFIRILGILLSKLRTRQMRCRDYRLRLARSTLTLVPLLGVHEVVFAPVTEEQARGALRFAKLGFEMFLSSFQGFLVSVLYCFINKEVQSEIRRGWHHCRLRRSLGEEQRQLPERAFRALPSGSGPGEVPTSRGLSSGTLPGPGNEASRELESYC

T2: GIPR S382T (Homo sapiens, UniProt P48546, S382T)
T2 construct: host or cells: HEK293
T2 sequence (P48546 22-466 S382T): T1 sequence (P48546 22-466 I378M) with M357I, S361T

T3: GIPR S382Y (Homo sapiens, UniProt P48546, S382Y)
T3 construct: host or cells: HEK293
T3 sequence (P48546 22-466 S382Y): T1 sequence (P48546 22-466 I378M) with M357I, S361Y

T4: GIPR K397N (Homo sapiens, UniProt P48546, K397N)
T4 construct: host or cells: HEK293
T4 sequence (P48546 22-466 K397N): T1 sequence (P48546 22-466 I378M) with M357I, K376N

T5: GIPR V399M (Homo sapiens, UniProt P48546, V399M)
T5 construct: host or cells: HEK293
T5 sequence (P48546 22-466 V399M): T1 sequence (P48546 22-466 I378M) with M357I, V378M

T6: GIPR S415I (Homo sapiens, UniProt P48546, S415I)
T6 construct: host or cells: HEK293
T6 sequence (P48546 22-466 S415I): T1 sequence (P48546 22-466 I378M) with M357I, S394I

T7: GIPR E418K (Homo sapiens, UniProt P48546, E418K)
T7 construct: host or cells: HEK293
T7 sequence (P48546 22-466 E418K): T1 sequence (P48546 22-466 I378M) with M357I, E397K

T8: GIPR G449A (Homo sapiens, UniProt P48546, G449A)
T8 construct: host or cells: HEK293
T8 sequence (P48546 22-466 G449A): T1 sequence (P48546 22-466 I378M) with M357I, G428A

B1: I378M (protein)
chain: T1 sequence (P48546 22-466 I378M)
B2: S382T (protein)
chain: T1 sequence (P48546 22-466 I378M) with M357I, S361T
B3: S382Y (protein)
chain: T1 sequence (P48546 22-466 I378M) with M357I, S361Y
B4: K397N (protein)
chain: T1 sequence (P48546 22-466 I378M) with M357I, K376N
B5: V399M (protein)
chain: T1 sequence (P48546 22-466 I378M) with M357I, V378M
B6: S415I (protein)
chain: T1 sequence (P48546 22-466 I378M) with M357I, S394I
B7: E418K (protein)
chain: T1 sequence (P48546 22-466 I378M) with M357I, E397K
B8: G449A (protein)
chain: T1 sequence (P48546 22-466 I378M) with M357I, G428A

These molecules were tested against T1, GIPR I378M (assay: cAMP accumulation). Settings: not given.
Type: cell-based
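Wherever Beta, Barr is given: BRET readout of β-arrestin 2 recruitment in transiently transfected HEK293 cells expressing WT GIPR or a GIPR variant plus GPCR kinase 2, Rluc8 donor and citrine acceptor.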
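Wherever In vitro groups (β-arrestin) is given: BRET readout of β-arrestin 2 recruitment in transiently transfected HEK293 cells expressing WT GIPR or a GIPR variant plus GPCR kinase 2, Rluc8 donor and citrine acceptor.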

Efficacy at 100pmol (cAMP)	Molecule
0.8167	B1

The molecules below were run against T2, GIPR S382T (assay: cAMP accumulation). Settings: not given.
Type: cell-based

Efficacy at 100pmol (cAMP)	Molecule
0.1068	B2

These molecules were tested against T3, GIPR S382Y (assay: cAMP accumulation). Settings: not given.
Type: cell-based

Efficacy at 100pmol (cAMP)	Molecule
0.008271	B3

The molecules below were run against T4, GIPR K397N (assay: cAMP accumulation). Settings: not given.
Type: cell-based

Efficacy at 100pmol (cAMP)	Molecule
0.5221	B4

The molecules below were run against T5, GIPR V399M (assay: cAMP accumulation). Settings: not given.
Type: cell-based

Efficacy at 100pmol (cAMP)	Molecule
0.2386	B5

These molecules were tested against T6, GIPR S415I (assay: cAMP accumulation). Settings: not given.
Type: cell-based

Efficacy at 100pmol (cAMP)	Molecule
0.6572	B6

What follows are molecules tested against T7, GIPR E418K (assay: cAMP accumulation). Settings: not given.
Type: cell-based

Efficacy at 100pmol (cAMP)	Molecule
0.7942	B7

What follows are molecules tested against T8, GIPR G449A (assay: cAMP accumulation). Settings: not given.
Type: cell-based

Efficacy at 100pmol (cAMP)	Molecule
0.609	B8

The molecules below were run on GIPR variants (groups) (assay: cAMP accumulation). Settings: cAMP part of the in vitro group.
Type: cell-based, human
Procedure: HEK293 (CRL-1573, American Type Culture Collection) and β-arrestin 1/2 knockout cells, generated from HEK293A[48], were used for cAMP measurement, homologues competition binding and β-arrestin 2 recruitment. For the internalization assay, endosomal signalling and basal receptor localization experiments, HEK293A (R70507, Thermo Fisher) cells were used. Both cell lines were cultured at 5% CO2 at 37 °C in Roswell Park Memorial Institute GlutaMAX-I supplemented with 10% fetal bovine serum, 180 units ml^−1 penicillin, and 45 g ml^−1 streptomycin. For the cAMP and binding experiments, cells were transfected with the calcium phosphate precipitation method[49]. The polyethyleneimine (PEI) transfection method was used for the β-arrestin 2 recruitment assays[50], endosomal signalling and basal receptor localization assays, while the lipofectamine transfection method was used for the internalization assay.
cAMP production was measured with the DiscoverX Hithunter cAMP assay according to the manufacturer’s protocol (DiscoverX). […] On the day of the assay, the cells were washed twice with HEPES-buffered saline (HBS) and incubated with HBS and 1 mM 3-isobutyl-1-methylxanthine for 30 min at 37 °C. […] After the incubation, the assay medium was removed from the plate and the cells were washed with 30 µl PBS and treated with 40 µl enzyme donor–lysis buffer–chemiluminescent reagents and 10 µl cAMP antibodies for 60 min before 40 µl enzyme acceptor solution added. After a 3-h incubation on a shaking table in the dark, the cAMP accumulation was measured based on luminescence with a Perkin Elmer EnVision 2104 Multilabel Microplate Reader.
For cAMP accumulation, the data were fitted as a sigmoidal curve with a Hill slope of 1; for homologous competition binding, the data were fitted as a sigmoidal curve with a Hill slope of −1.

Molecule	In vitro groups (cAMP)
B1	WT-like_camp
B8	WT-like_camp
B6	WT-like_camp
B2	LoF_camp
B4	WT-like_camp
B3	LoF_camp
B7	WT-like_camp
B5	LoF_camp

Same assay, conditions: cAMP production compared with WT

Molecule	percentage_camp
B1	>50% cAMP
B8	>50% cAMP
B6	>50% cAMP
B2	<50% cAMP
B4	>50% cAMP
B3	<50% cAMP
B7	>50% cAMP
B5	<50% cAMP

Same assay, conditions: in vitro cAMP production per GIPR variant

Molecule	Beta, cAMP
B1	0.8167
B8	0.609
B6	0.6572
B2	0.1068
B4	0.5221
B3	0.008271
B7	0.7942
B5	0.2386

Each molecule was assayed on GIPR variants (groups) (assay: β-arrestin 2 recruitment (BRET)). Settings: arr part of the in vitro group.
Procedure: Both cell lines were cultured at 5% CO2 at 37 °C in Roswell Park Memorial Institute GlutaMAX-I supplemented with 10% fetal bovine serum, 180 units ml^−1 penicillin, and 45 g ml^−1 streptomycin. […] The polyethyleneimine (PEI) transfection method was used for the β-arrestin 2 recruitment assays[50], endosomal signalling and basal receptor localization assays, while the lipofectamine transfection method was used for the internalization assay.
Measurement of β-arrestin 2 recruitment was performed with a BRET assay. Two days before the assay, the HEK293 cells were transiently transfected with either WT GIPR or the GIPR variants together with the donor Rluc8-Arrestin-3-Sp1, the acceptor mem-linker-citrine-SH3 and the GPCR kinase 2 to facilitate β-arrestin 2 recruitment. On assay day, the cells were washed with PBS and resuspended in PBS supplemented with 5 mmol l^−1 glucose. Subsequently, 85 µl of the cell suspension was transferred to a white 96-well plate and 10 µl of 50 µM coelenterazine-h was added.

Molecule	In vitro groups (β-arrestin)
B1	GoF_arr
B8	WT-like_arr
B6	WT-like_arr
B2	LoF_arr
B4	LoF_arr
B3	LoF_arr
B7	WT-like_arr
B5	LoF_arr

Same assay, conditions: in vitro β-arrestin recruitment per GIPR variant

Molecule	Beta, Barr
B1	1.357
B8	0.5256
B6	0.9285
B2	0.05782
B4	0.3822
B3	0
B7	0.9111
B5	0
